Blank lines part the entries; values can stand above or below the binder they belong to.
How the values were obtained:
[1] = molecular target: KEAP1 (wild-type full-length), His-tagged (human) (UniProt Q14145); experiment: AlphaScreen; FLAG-NRF2 wt isoform 1 614.4 nM, His-KEAP1 150 nM; Rep 1; positive control for Q75R
[2] = molecular target: KEAP1 (wild-type full-length), His-tagged (human) (UniProt Q14145); experiment: AlphaScreen; 9.6 nM FLAG-NRF2, 150 nM His-KEAP1; Repeat 1 (same value as in Table 26)
[3] = molecular target: KEAP1 (wild-type full-length), His-tagged (human) (UniProt Q14145); experiment: AlphaScreen; mean over 9.6, 19.2 and 38.4 nM NRF2; 150 nM His-KEAP1
[4] = molecular target: KEAP1 (wild-type full-length), His-tagged (human) (UniProt Q14145); experiment: AlphaScreen; 19.2 nM FLAG-NRF2, 150 nM His-KEAP1; Rep 1; control for I28V
[5] = molecular target: KEAP1 (wild-type full-length), His-tagged (human) (UniProt Q14145); experiment: AlphaScreen; 9.6 nM FLAG-NRF2, 150 nM His-KEAP1 (same value as in Table 26)
[6] = molecular target: KEAP1 (wild-type full-length), His-tagged (human) (UniProt Q14145); experiment: AlphaScreen; 153.6 nM FLAG-NRF2, 150 nM His-KEAP1; Rep 3; control for I86V
[7] = molecular target: KEAP1 (wild-type full-length), His-tagged (human) (UniProt Q14145); experiment: AlphaScreen; 9.6 nM FLAG-NRF2, 150 nM His-KEAP1; Rep 2; control for I28V
[8] = molecular target: KEAP1 (wild-type full-length), His-tagged (human) (UniProt Q14145); experiment: AlphaScreen; 19.2 nM FLAG-NRF2, 150 nM His-KEAP1; wild type set to 100%
[9] = molecular target: KEAP1 (wild-type full-length), His-tagged (human) (UniProt Q14145); experiment: AlphaScreen; NRF2 wt isoform 1 9.6 nM, KEAP1 150 nM; signal against NRF2-only control; control for Q75R
[10] = molecular target: KEAP1 (wild-type full-length), His-tagged (human) (UniProt Q14145); experiment: AlphaScreen; NRF2 wt isoform 1 307.2 nM, KEAP1 150 nM; signal against NRF2-only control; control for Q75R
[11] = molecular target: KEAP1 (wild-type full-length), His-tagged (human) (UniProt Q14145); experiment: AlphaScreen; mean over 9.6, 19.2 and 38.4 nM NRF2 wt isoform 1, KEAP1 150 nM; reference for I86V
[12] = molecular target: KEAP1 (wild-type full-length), His-tagged (human) (UniProt Q14145); experiment: AlphaScreen; NRF2 wt isoform 1 19.2 nM, KEAP1 150 nM; set as the 100 % reference for I86V
[13] = molecular target: KEAP1 (wild-type full-length), His-tagged (human) (UniProt Q14145); experiment: AlphaScreen, all variants on one plate; average of three conditions ± standard deviation, KEAP1 150 nM; relative to NRF2 (WT) isoform 1
[14] = molecular target: KEAP1 (wild-type full-length), His-tagged (human) (UniProt Q14145); experiment: AlphaScreen, all variants on one plate; lower condition (9.6 nM NRF2), KEAP1 150 nM; relative to NRF2 (WT) isoform 1
[15] = molecular target: KEAP1 (wild-type full-length), His-tagged (human) (UniProt Q14145); experiment: AlphaScreen, all variants on one plate; upper condition (38.4 nM NRF2), KEAP1 150 nM; relative to NRF2 (WT) isoform 1
[16] = molecular target: KEAP1 (wild-type full-length), His-tagged (human) (UniProt Q14145); experiment: AlphaScreen, all variants on one plate; optimal condition (19.2 nM NRF2), KEAP1 150 nM; relative to NRF2 (WT) isoform 1
[17] = molecular target: KEAP1 (wild-type full-length), His-tagged (human) (UniProt Q14145); experiment: AlphaScreen; average ± standard deviation over three NRF2 concentrations, KEAP1 150 nM; relative to wild-type NRF2 isoform 1
[18] = molecular target: KEAP1 (wild-type full-length), His-tagged (human) (UniProt Q14145); experiment: AlphaScreen; FLAG-NRF2 Q75R 2.4 nM, His-KEAP1 150 nM; Rep 2
[19] = molecular target: KEAP1 (wild-type full-length), His-tagged (human) (UniProt Q14145); experiment: AlphaScreen; FLAG-NRF2 Q75R 19.2 nM, His-KEAP1 150 nM; Rep 1
[20] = molecular target: KEAP1 (wild-type full-length), His-tagged (human) (UniProt Q14145); experiment: AlphaScreen; FLAG-NRF2 I86V 153.6 nM, His-KEAP1 150 nM; Rep 1
[21] = molecular target: KEAP1 (wild-type full-length), His-tagged (human) (UniProt Q14145); experiment: AlphaScreen; NRF2 I86V 9.6 nM, KEAP1 150 nM; relative to wild-type NRF2 isoform 1 (100 %)
[22] = molecular target: KEAP1 (wild-type full-length), His-tagged (human) (UniProt Q14145); experiment: AlphaScreen; FLAG-NRF2 I86V 614.4 nM, His-KEAP1 150 nM; Rep 3
[23] = molecular target: KEAP1 (wild-type full-length), His-tagged (human) (UniProt Q14145); experiment: AlphaScreen; NRF2 I86V 38.4 nM, KEAP1 150 nM; relative to wild-type NRF2 isoform 1 (100 %)
[24] = molecular target: KEAP1 (wild-type full-length), His-tagged (human) (UniProt Q14145); experiment: AlphaScreen; NRF2 I86V 2.4 nM, KEAP1 150 nM; signal against NRF2-only control
[25] = molecular target: KEAP1 (wild-type full-length), His-tagged (human) (UniProt Q14145); experiment: AlphaScreen; FLAG-NRF2 I86V 307.2 nM, His-KEAP1 150 nM; Rep 3
[26] = molecular target: KEAP1 (wild-type full-length), His-tagged (human) (UniProt Q14145); experiment: AlphaScreen; NRF2 I86V 38.4 nM, KEAP1 150 nM; signal against NRF2-only control
[27] = molecular target: KEAP1 (wild-type full-length), His-tagged (human) (UniProt Q14145); experiment: AlphaScreen; FLAG-NRF2 I86V 19.2 nM, His-KEAP1 150 nM; Rep 1

Chain of KEAP1 (wild-type full-length), His-tagged (human) (Q14145 2-624 limits assumed): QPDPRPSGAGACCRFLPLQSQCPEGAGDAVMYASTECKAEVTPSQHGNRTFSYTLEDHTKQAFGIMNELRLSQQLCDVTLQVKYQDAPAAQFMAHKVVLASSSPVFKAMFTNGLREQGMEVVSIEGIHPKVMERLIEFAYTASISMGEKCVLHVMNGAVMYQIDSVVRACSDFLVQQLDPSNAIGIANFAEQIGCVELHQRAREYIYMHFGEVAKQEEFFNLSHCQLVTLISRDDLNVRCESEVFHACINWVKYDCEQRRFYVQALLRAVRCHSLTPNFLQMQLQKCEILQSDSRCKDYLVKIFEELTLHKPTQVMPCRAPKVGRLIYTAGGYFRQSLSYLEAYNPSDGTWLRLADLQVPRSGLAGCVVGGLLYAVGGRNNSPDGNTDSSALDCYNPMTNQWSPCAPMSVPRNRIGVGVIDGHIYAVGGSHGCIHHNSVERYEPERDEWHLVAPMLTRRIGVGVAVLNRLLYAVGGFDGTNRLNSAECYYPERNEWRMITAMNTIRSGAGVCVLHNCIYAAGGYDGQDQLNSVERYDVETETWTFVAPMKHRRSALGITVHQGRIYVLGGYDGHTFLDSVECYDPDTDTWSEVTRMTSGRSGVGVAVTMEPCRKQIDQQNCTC

A-counts (NRF2 plus KEAP1) [1]: 1650 A-counts
A-counts [2]: 1590 A-counts
Average Binding [3]: 100%
A-counts [4]: 1980 A-counts
S/N [5]: 4.1
A-counts [6]: 2990 A-counts
A-counts [7]: 1640 A-counts
Binding Percentage (%) [8]: 100%
S/N [9]: 3
S/N [10]: 1.4
Average Binding [11]: 100%
Binding Percentage [12]: 100%
B1: NRF2 isoform 1 (wild-type full-length), FLAG-tagged (protein)
chain: MMDLELPPPGLPSQQDMDLIDILWRQDIDLGVSREVFDFSQRRKEYELEKQKKLEKERQEQLQKEQEKAFFAQLQLDEETGEFLPIQPAQHIQSETSGSANYSQVAHIPKSDALYFDDCMQLLAQTFPFVDDNEVSSATFQSLVPDIPGHIESPVFIATNQAQSPETSVAQVAPVDLDGMQQDIEQVWEELLSIPELQCLNIENDKLVETTMVPSPEAKLTEVDNYHFYSSIPSMEKEVGNCSPHFLNAFEDSFSSILSTEDPNQLTVNSLNSDATVNTDFGDEFYSAFIAEPSISNSMPSPATLSHSLSELLNGPIDVSDLSLCKAFNQNHPESTAEFNDSDSGISLNTSPSVASPEHSVESSSYGDTLLGLSDSEVEELDSAPGSVKQNGPKTPVHSSGDMVQPLSPSQGQSTHVHDAQCENTPEKELPVSPGHRKTPFTKDKHSSRLEAHLTRDELRAKALHIPFPVEKIINLPVVDFNEMMSKEQFNEAQLALIRDIRRRGKNKVAAQNCRKRKLENIVELEQDLDHLKDEKEKLLKEKGENDKSLHLLKKQLSTLYLEVFSMLRDEDGKPYSPSEYSLQQTRDGNVFLVPKSKKPDVKKN

% Disruption in Binding (Reported Values) [13]: 20.3%
% Disruption in Binding [14]: 16.7%
% Disruption in Binding [15]: 21.5%
% Disruption in Binding [16]: 22.6%
B2: NRF2 isoform 1 (I28V full-length), FLAG-tagged (protein)
chain: MMDLELPPPGLPSQQDMDLIDILWRQDVDLGVSREVFDFSQRRKEYELEKQKKLEKERQEQLQKEQEKAFFAQLQLDEETGEFLPIQPAQHIQSETSGSANYSQVAHIPKSDALYFDDCMQLLAQTFPFVDDNEVSSATFQSLVPDIPGHIESPVFIATNQAQSPETSVAQVAPVDLDGMQQDIEQVWEELLSIPELQCLNIENDKLVETTMVPSPEAKLTEVDNYHFYSSIPSMEKEVGNCSPHFLNAFEDSFSSILSTEDPNQLTVNSLNSDATVNTDFGDEFYSAFIAEPSISNSMPSPATLSHSLSELLNGPIDVSDLSLCKAFNQNHPESTAEFNDSDSGISLNTSPSVASPEHSVESSSYGDTLLGLSDSEVEELDSAPGSVKQNGPKTPVHSSGDMVQPLSPSQGQSTHVHDAQCENTPEKELPVSPGHRKTPFTKDKHSSRLEAHLTRDELRAKALHIPFPVEKIINLPVVDFNEMMSKEQFNEAQLALIRDIRRRGKNKVAAQNCRKRKLENIVELEQDLDHLKDEKEKLLKEKGENDKSLHLLKKQLSTLYLEVFSMLRDEDGKPYSPSEYSLQQTRDGNVFLVPKSKKPDVKKN

Reported Value (reduction in binding) [17]: 30.2%
% Disruption in Binding (Reported Values) [13]: 27.5%
% Disruption in Binding [14]: 29.3%
% Disruption in Binding [15]: 25.1%
A-counts (NRF2 plus KEAP1) [18]: 566 A-counts
% Disruption in Binding [16]: 28.3%
A-counts (NRF2 plus KEAP1) [19]: 1300 A-counts
B3: NRF2 isoform 1 (Q75R full-length), FLAG-tagged (protein)
chain: MMDLELPPPGLPSQQDMDLIDILWRQDIDLGVSREVFDFSQRRKEYELEKQKKLEKERQEQLQKEQEKAFFAQLRLDEETGEFLPIQPAQHIQSETSGSANYSQVAHIPKSDALYFDDCMQLLAQTFPFVDDNEVSSATFQSLVPDIPGHIESPVFIATNQAQSPETSVAQVAPVDLDGMQQDIEQVWEELLSIPELQCLNIENDKLVETTMVPSPEAKLTEVDNYHFYSSIPSMEKEVGNCSPHFLNAFEDSFSSILSTEDPNQLTVNSLNSDATVNTDFGDEFYSAFIAEPSISNSMPSPATLSHSLSELLNGPIDVSDLSLCKAFNQNHPESTAEFNDSDSGISLNTSPSVASPEHSVESSSYGDTLLGLSDSEVEELDSAPGSVKQNGPKTPVHSSGDMVQPLSPSQGQSTHVHDAQCENTPEKELPVSPGHRKTPFTKDKHSSRLEAHLTRDELRAKALHIPFPVEKIINLPVVDFNEMMSKEQFNEAQLALIRDIRRRGKNKVAAQNCRKRKLENIVELEQDLDHLKDEKEKLLKEKGENDKSLHLLKKQLSTLYLEVFSMLRDEDGKPYSPSEYSLQQTRDGNVFLVPKSKKPDVKKN

Reported Value (reduction in binding) [17]: 3.2%
A-counts (NRF2 plus KEAP1) [20]: 2380 A-counts
% Disruption in Binding (Reported Values) [13]: 8.4%
Binding Percentage [21]: 99.1%
% Disruption in Binding [14]: 5.7%
% Disruption in Binding [15]: 10.5%
A-counts (NRF2 plus KEAP1) [22]: 1920 A-counts
Binding Percentage [23]: 93.7%
S/N [24]: 2.6
% Disruption in Binding [16]: 9.2%
A-counts (NRF2 plus KEAP1) [25]: 2140 A-counts
S/N [26]: 2.9
A-counts (NRF2 plus KEAP1) [27]: 3120 A-counts
B4: NRF2 isoform 1 (I86V full-length), FLAG-tagged (protein)
chain: MMDLELPPPGLPSQQDMDLIDILWRQDIDLGVSREVFDFSQRRKEYELEKQKKLEKERQEQLQKEQEKAFFAQLQLDEETGEFLPVQPAQHIQSETSGSANYSQVAHIPKSDALYFDDCMQLLAQTFPFVDDNEVSSATFQSLVPDIPGHIESPVFIATNQAQSPETSVAQVAPVDLDGMQQDIEQVWEELLSIPELQCLNIENDKLVETTMVPSPEAKLTEVDNYHFYSSIPSMEKEVGNCSPHFLNAFEDSFSSILSTEDPNQLTVNSLNSDATVNTDFGDEFYSAFIAEPSISNSMPSPATLSHSLSELLNGPIDVSDLSLCKAFNQNHPESTAEFNDSDSGISLNTSPSVASPEHSVESSSYGDTLLGLSDSEVEELDSAPGSVKQNGPKTPVHSSGDMVQPLSPSQGQSTHVHDAQCENTPEKELPVSPGHRKTPFTKDKHSSRLEAHLTRDELRAKALHIPFPVEKIINLPVVDFNEMMSKEQFNEAQLALIRDIRRRGKNKVAAQNCRKRKLENIVELEQDLDHLKDEKEKLLKEKGENDKSLHLLKKQLSTLYLEVFSMLRDEDGKPYSPSEYSLQQTRDGNVFLVPKSKKPDVKKN

Source: patent US20250352667A1
